How the values were obtained:
[1] = test system: COc1cccc(C(=O)N[C@@H]2[C@H](O)[C@@H](CO)O[C@H]2n2cnc3c(NCc4cccc5ccccc45)ncnc32)c1
Description: Binding affinity for NAD- in human glyceraldehyde-3-phosphate dehydrogenase (GAPDH)

Chain of Glyceraldehyde-3-phosphate dehydrogenase (Homo sapiens), P04406 (P04406 whole entry): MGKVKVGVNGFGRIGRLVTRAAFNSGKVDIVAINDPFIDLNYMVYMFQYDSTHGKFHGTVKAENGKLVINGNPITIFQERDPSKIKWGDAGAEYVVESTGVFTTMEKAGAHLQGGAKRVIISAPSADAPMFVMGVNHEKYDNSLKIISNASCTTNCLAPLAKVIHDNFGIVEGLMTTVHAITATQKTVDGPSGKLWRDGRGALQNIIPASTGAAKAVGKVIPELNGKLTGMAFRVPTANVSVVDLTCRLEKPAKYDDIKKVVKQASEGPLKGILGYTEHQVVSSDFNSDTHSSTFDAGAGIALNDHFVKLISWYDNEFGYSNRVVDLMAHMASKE
Description for Trypanosoma: Binding affinity for NAD- in trypanosomal glyceraldehyde-3-phosphate dehydrogenase (GAPDH)

Molecule: Glyceraldehyde-3-phosphate dehydrogenase (Homo sapiens), P04406
- Km [1]: 0.04 µM

Molecule: COc1cccc(C(=O)N[C@@H]2[C@H](O)[C@@H](CO)O[C@H]2n2cnc3c(NCc4cccc5ccccc45)ncnc32)c1
- Km (Trypanosoma): 0.45 µM

Reference: ChEMBL document CHEMBL1133799, “A disubstituted NAD+ analogue is a nanomolar inhibitor of trypanosomal glyceraldehyde-3-phosphate dehydrogenase” (Bioorg Med Chem Lett, 2001)
